Test results taken from patent US20040260058A1 (published 2004).

Key:
Assay in all cases: yeast two-hybrid screen; number of positive colonies with this interactor
Matrilin-2 = Matrilin-2 (rat, UniProt A0A8I6GJR4 24-910)
Protocol: (§1) A yeast two hybrid screen was carried out in order to identify A proteins which interact with L119. The entire coding region of the L119 cDNA was amplified in a polymerase chain reaction (PCR) and cloned into vector pPC86. The oligonucleotide primers having the sequences SEQ ID NO: 35 and 36 were used to do this. A 50 μl PCR mixture was prepared from 5 μl of 10× cloned Pfu buffer (Stratagene); 2 μl of DNTP mixture (5 mM; Cat. No. 1969064, Roche Diagnostics GmbH, Mannheim, Germany); in each case 2 μl of the abovementioned primer pairs (stock conc. 10 μM); 100 ng of rL119 cDNA template, 35 μl of H₂O and 1 μl of Pfu turbo DNA polymerase (Stratagene), and, after it had been incubated at 94° C. for 3 minutes, 28 PCR cycles were then carried out in accordance with the following temperature programm: 1 min of primer annealing at 56° C., 1 min of strand extension at 72° C. and 1 min of DNA double-strand melting at 94° C., together with a concluding extension step of 7 min at 72° C. The resulting PCR products were gel-purified, cut with the restriction enzymes SalI and NotI and cloned into the corresponding restriction cleavage sites of pPC86. The DNA construct obtained in this way encodes a protein in which the Gal4 DNA-binding domain is fused to the L119 protein. The yeast strain Y190 (Flick JS and Johnston M (1990) Mol. Cell. Biol. 10, 4757-4769; Harper J et al. (1993) Cell 75, 805-816) (from Life Technologies) was transformed with this construct. The resulting yeast strain was transformed with a rat brain cDNA library (obtained from cortex and hippocampus RNA, following maximal electroconvulsive shock (MECS) (Antony Lanahan and Paul Worley)) in the vector pPC86 (from Life Technologies), and 3×10⁶ transformants were plated out. After 3 to 5 days of growth at 30° C., colonies having a diameter of more than 2 mm were isolated and subjected to X-Gal staining (protocol: ProQuest™ Two-Hybrid System, Cat. Series 10835, Life Technologies) . […] The respective cDNA from these colonies was amplified using vector-specific primers and the-amplicon was sequenced (protocol: ProQuest™ Two-Hybrid System, Cat. Series 10835, Life Technologies). The sequence analysis gave 8 different putative interacting proteins (Table 1): […]

Nel = Nel (rat, UniProt Q62918)
Sequence of Nel (Q62918 whole entry): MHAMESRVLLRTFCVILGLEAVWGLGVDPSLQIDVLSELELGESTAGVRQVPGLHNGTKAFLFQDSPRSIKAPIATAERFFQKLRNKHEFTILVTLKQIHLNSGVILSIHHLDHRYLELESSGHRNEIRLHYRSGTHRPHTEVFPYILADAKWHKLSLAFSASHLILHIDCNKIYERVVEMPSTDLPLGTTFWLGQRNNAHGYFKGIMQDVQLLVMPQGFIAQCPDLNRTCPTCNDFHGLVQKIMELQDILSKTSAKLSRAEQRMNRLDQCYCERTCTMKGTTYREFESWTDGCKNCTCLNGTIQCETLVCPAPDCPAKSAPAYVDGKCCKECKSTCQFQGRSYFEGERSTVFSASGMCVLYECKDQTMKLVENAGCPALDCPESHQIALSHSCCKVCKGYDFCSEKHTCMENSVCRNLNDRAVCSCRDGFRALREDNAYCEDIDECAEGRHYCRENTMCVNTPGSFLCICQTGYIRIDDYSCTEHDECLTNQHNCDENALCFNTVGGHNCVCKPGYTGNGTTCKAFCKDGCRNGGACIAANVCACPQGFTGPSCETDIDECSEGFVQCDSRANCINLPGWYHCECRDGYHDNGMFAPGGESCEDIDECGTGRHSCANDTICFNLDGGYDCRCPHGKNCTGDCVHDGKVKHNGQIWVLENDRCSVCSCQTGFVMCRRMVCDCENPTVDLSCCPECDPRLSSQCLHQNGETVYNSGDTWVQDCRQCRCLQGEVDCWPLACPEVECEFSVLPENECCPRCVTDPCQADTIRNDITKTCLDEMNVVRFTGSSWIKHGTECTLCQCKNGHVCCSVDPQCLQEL
Protocol: as §1

Notch 4 = Notch 4 (rat)
Protocol: as §1

Laminin alpha-4 chain = Laminin alpha-4 chain (rat)
Protocol: as §1

Sequence of Matrilin-2 (A0A8I6GJR4 entry or part of it): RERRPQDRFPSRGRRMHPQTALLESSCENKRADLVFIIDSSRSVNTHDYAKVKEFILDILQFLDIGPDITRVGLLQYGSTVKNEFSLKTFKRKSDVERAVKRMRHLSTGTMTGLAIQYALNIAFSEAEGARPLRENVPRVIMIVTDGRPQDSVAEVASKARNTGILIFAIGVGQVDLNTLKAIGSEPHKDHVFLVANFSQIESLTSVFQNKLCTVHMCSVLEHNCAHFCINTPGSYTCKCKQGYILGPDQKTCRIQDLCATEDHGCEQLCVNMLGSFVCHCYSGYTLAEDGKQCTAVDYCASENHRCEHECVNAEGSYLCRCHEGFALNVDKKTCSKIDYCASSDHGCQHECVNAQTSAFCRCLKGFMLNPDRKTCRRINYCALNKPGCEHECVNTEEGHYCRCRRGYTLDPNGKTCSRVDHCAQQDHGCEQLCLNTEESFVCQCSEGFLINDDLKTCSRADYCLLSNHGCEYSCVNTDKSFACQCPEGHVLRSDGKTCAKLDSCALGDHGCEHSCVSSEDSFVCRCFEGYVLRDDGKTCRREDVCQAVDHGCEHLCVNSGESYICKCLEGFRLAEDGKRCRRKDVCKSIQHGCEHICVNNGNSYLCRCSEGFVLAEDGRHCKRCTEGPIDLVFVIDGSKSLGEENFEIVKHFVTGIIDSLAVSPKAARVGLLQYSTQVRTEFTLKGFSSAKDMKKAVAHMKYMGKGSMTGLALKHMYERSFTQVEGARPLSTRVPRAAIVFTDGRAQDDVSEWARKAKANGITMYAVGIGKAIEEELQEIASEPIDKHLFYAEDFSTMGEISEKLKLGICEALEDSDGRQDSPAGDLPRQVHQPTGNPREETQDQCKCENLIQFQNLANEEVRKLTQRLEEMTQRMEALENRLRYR

B1: Gal4 DNA-binding domain fused to the L119 protein (yeast two-hybrid bait) (other)
chain: MKLLSSIEQACDICRLKKLKCSKEKPKCAKCLKNNWECRYSPKTKRSPLTRAHLTEVESRLERLEQLFLLIFPREDLDMILKMDSLQDIKALLTGLFVQDNVNKDAVTDRLASVETDMPLTLRQHRISATSSSEESSNKGQRQLTVSMEKWTAWEPQGADALRRFQGLLLDRRGRLHCQVLRLREVARRLERLRRRSLAANVAGSSLSAAGALAAIVGLSLSPVTLGASLVASAVGLGVATAGGAVTITSDLSLIFCNSREVRRVQEIAATCQDQMRELLSCLEFFCQWQGRGDRQLLQSGRDASMALYNSVYFIVFFGSRGFLIPRRAEGATKVSQAVLKAKIQKLSESLESCTGALDELSEQLESRVQLCTKAGRGHNLRNSPDLDAALFF
notes: also called L119 bait
# Frequency (Matrilin-2): 1
# Frequency (Nel): 5
# Frequency (Notch 4): 3
# Frequency (Laminin alpha-4 chain): 1
